These results are taken from article PMC12057046, “Elucidation of short linear motif-based interactions of the MIT and rhodanese domains of the ubiquitin-specific protease 8” (Biology Direct, 2025).

First the molecules themselves.
B1: TET3 peptide 1705-1720 (methylcytosine dioxygenase TET3), 16-mer library wild type / USP8 rhodanese domain (ubiquitin carboxyl-terminal hydrolase 8, residues 174-317) (parent)
chain 1: GLALWEAKMKQLAERA
chain 2: KCETKEKGAITAKELYTMMTDKNISLIIMDARRMQDYQDSCILHSLSVPEEAISPGVTASWIEAHLPDDSKDTWKKRGNVEYVVLLDWFSSAKDLQIGTTLRSLKDALFKWESKTVLRNEPLVLEGGYENWLLCYPQYTTNAKV

The variants in this test derive from B1. Description: peptide-phage display deep mutational scan (M13, 16-mer library, displayed with a C-terminal GGGSG linker encoded by the 3' flank) selected against the GST-tagged USP8 rhodanese domain, four rounds; NGS counts summed over selection …. The note with it: with USP8 rhodanese domain (ubiquitin carboxyl-terminal hydrolase 8, residues 174-317), 10 µg GST-bait on MaxiSorp, pre-cleared on GST, 2 h at 4 °C, five washes with 0.05% Tween 20 in PBS, not graded, scale: average over two replicas of the peptide's fractional NGS count.
As to chain 1 GLANWEAKMKQLAERA [chain 1 L4N], the screen value is 0.00113.
The result for chain 1 GLAQWEAKMKQLAERA [chain 1 L4Q] reads 0.00044; that for chain 1 GLAHWEAKMKQLAERA [chain 1 L4H], 1.3e-05; that for chain 1 GLATWEAKMKQLAERA [chain 1 L4T], 0.000596.
The result for chain 1 GLARWEAKMKQLAERA [chain 1 L4R] reads 0.000374; that for chain 1 GLAAWEAKMKQLAERA [chain 1 L4A], 9.18e-05; that for chain 1 GLAKWEAKMKQLAERA [chain 1 L4K], 4.33e-06.
Next, chain 1 GLAEWEAKMKQLAERA [chain 1 L4E]: 9.1e-05.
For the variant chain 1 GLASWEAKMKQLAERA [chain 1 L4S], the screen value worked out at 4.74e-05.
As to chain 1 GLAVWEAKMKQLAERA [chain 1 L4V], the screen value is 0.00974.
The result for chain 1 GLAFWEAKMKQLAERA [chain 1 L4F] reads 0.000225; that for chain 1 GLADWEAKMKQLAERA [chain 1 L4D], 4.33e-06.
Next, chain 1 GLAGWEAKMKQLAERA [chain 1 L4G]: 2.3e-05; chain 1 GLAMWEAKMKQLAERA [chain 1 L4M]: 0.0286; chain 1 GLAPWEAKMKQLAERA [chain 1 L4P]: 4.33e-06.
The result for chain 1 GLALWEAEMKQLAERA [chain 1 K8E] reads 4.33e-06; that for chain 1 GLALWEAPMKQLAERA [chain 1 K8P], 1.73e-05; that for chain 1 GLALWEAQMKQLAERA [chain 1 K8Q], 4.33e-06.
Take chain 1 GLALWEANMKQLAERA [chain 1 K8N]: the screen value came to 2.3e-05.
The result for chain 1 GLALWEAKMKQLAIRA [chain 1 E14I] reads 4.33e-06; that for chain 1 GLALWEAKMKQLADRA [chain 1 E14D], 2.73e-05.
The result for chain 1 GLALWEAKMKQLAYRA [chain 1 E14Y] reads 2.3e-05.
Next, chain 1 GLALWEAKMKQLAWRA [chain 1 E14W]: 4.33e-06.
On to chain 1 GLALWEAKMKQLAARA [chain 1 E14A], for which the screen value was 4.18e-05.
For chain 1 GLALWEAKMKQLANRA [chain 1 E14N], the screen value came to 6.5e-05.
Next, chain 1 GLALWEAKMKQLATRA [chain 1 E14T]: 8.66e-06; chain 1 GLALWEAKMKQLAMRA [chain 1 E14M]: 0.000615; chain 1 GLALWEAKMKQLALRA [chain 1 E14L]: 0.000367.
Next, chain 1 GLALWEAKMKQLAFRA [chain 1 E14F]: 0.000199; chain 1 GLALWEAKMKQLASRA [chain 1 E14S]: 7.32e-05; chain 1 GLALWEAKMKQLAQRA [chain 1 E14Q]: 4.03e-05.
The result for chain 1 GLALWEAKMKQLAVRA [chain 1 E14V] reads 0.000238; that for chain 1 GLALWEAKMKQLAGRA [chain 1 E14G], 0.000341; that for chain 1 GLALWEAKMKQSAERA [chain 1 L12S], 4.33e-06.
For chain 1 GLALWEAKMKQAAERA [chain 1 L12A], the screen value stood at 1.15e-05.
Next, chain 1 GLALWEAKMKQMAERA [chain 1 L12M]: 4.33e-06.
The result for chain 1 GLALWEAKMKQKAERA [chain 1 L12K] reads 4.33e-06; that for chain 1 GLALWEAKMKQRAERA [chain 1 L12R], 1.15e-05; that for chain 1 GLALWEAKMKQIAERA [chain 1 L12I], 4.33e-06.
The result for chain 1 GLALWEAKMKQFAERA [chain 1 L12F] reads 8.66e-06.
For chain 1 GLALWEAKPKQLAERA [chain 1 M9P], the screen value was 2.45e-05.
The result for chain 1 GLALWEAKFKQLAERA [chain 1 M9F] reads 1.3e-05.
Next, chain 1 GLALWEAKNKQLAERA [chain 1 M9N]: 1.73e-05.
Next, chain 1 GLALWEAKQKQLAERA [chain 1 M9Q]: 3.16e-05; chain 1 GLALWEAKRKQLAERA [chain 1 M9R]: 0.000108.
For chain 1 GLALWEAKHKQLAERA [chain 1 M9H], the screen value was determined as 3.75e-05.
The result for chain 1 GLALWEAKYKQLAERA [chain 1 M9Y] reads 3.9e-05; that for chain 1 GLALWEAKIKQLAERA [chain 1 M9I], 4.74e-05.
The result for chain 1 GLALWEAKSKQLAERA [chain 1 M9S] reads 0.0119; that for chain 1 GLALWEAKLKQLAERA [chain 1 M9L], 4.33e-06.
Next, chain 1 GLALWEAKAKQLAERA [chain 1 M9A]: 0.00064; chain 1 GLALWEAKWKQLAERA [chain 1 M9W]: 0.00223.
As to chain 1 GLALWEAKTKQLAERA [chain 1 M9T], the screen value is 0.000181.
Next, chain 1 GLALWEAKVKQLAERA [chain 1 M9V]: 1.3e-05; chain 1 GLALWFAKMKQLAERA [chain 1 E6F]: 8.66e-06.
Next, chain 1 GLALWYAKMKQLAERA [chain 1 E6Y]: 1.15e-05; chain 1 GLALWAAKMKQLAERA [chain 1 E6A]: 8.66e-06.
With chain 1 GLALWVAKMKQLAERA [chain 1 E6V], the screen value amounted to 1.15e-05.
The result for chain 1 GLALWHAKMKQLAERA [chain 1 E6H] reads 3.9e-05.
Next, chain 1 GLALWDAKMKQLAERA [chain 1 E6D]: 9.38e-05; chain 1 GLALWGAKMKQLAERA [chain 1 E6G]: 0.000196; chain 1 GLALWSAKMKQLAERA [chain 1 E6S]: 0.000221.
Take chain 1 GLALWEIKMKQLAERA [chain 1 A7I]: the screen value was determined as 3.9e-05.
Next, chain 1 GLALWEEKMKQLAERA [chain 1 A7E]: 8.66e-06.
With chain 1 GLALWEYKMKQLAERA [chain 1 A7Y], the screen value is 2.3e-05.
The result for chain 1 GLALWEPKMKQLAERA [chain 1 A7P] reads 5.46e-05; that for chain 1 GLALWEWKMKQLAERA [chain 1 A7W], 0.0002; that for chain 1 GLALWEMKMKQLAERA [chain 1 A7M], 0.000234.
As for chain 1 GLALWETKMKQLAERA [chain 1 A7T], the screen value stood at 0.000404.
Next, chain 1 GLALWEFKMKQLAERA [chain 1 A7F]: 4.33e-06.
For chain 1 GLALWESKMKQLAERA [chain 1 A7S], the screen value is 2.3e-05.
The result for chain 1 GLALWEHKMKQLAERA [chain 1 A7H] reads 0.00234; that for chain 1 GLALWEVKMKQLAERA [chain 1 A7V], 5.18e-05; that for chain 1 GLALWEQKMKQLAERA [chain 1 A7Q], 0.00623.
chain 1 GLALWELKMKQLAERA [chain 1 A7L]: the screen value is 4.33e-06.
The result for chain 1 GLALWERKMKQLAERA [chain 1 A7R] reads 4.33e-06; that for chain 1 GLALWEGKMKQLAERA [chain 1 A7G], 7.04e-05; that for chain 1 GLALWENKMKQLAERA [chain 1 A7N], 0.000194.
The result for chain 1 GLALWEAKMKQLAERV [chain 1 A16V] reads 0.00901.
For chain 1 GLALWEAKMKQLAERS [chain 1 A16S], the screen value worked out at 0.00296.
The result for chain 1 GLALWEAKMKQLAERY [chain 1 A16Y] reads 1.58e-05.
Next, chain 1 GLALWEAKMKQLAERH [chain 1 A16H]: 2.3e-05; chain 1 GLALWEAKMKQLAERF [chain 1 A16F]: 4.33e-06; chain 1 GLALWEAKMKQLAERQ [chain 1 A16Q]: 0.00138.
Next, chain 1 GLALWEAKMKQLAERR [chain 1 A16R]: 8.66e-06; chain 1 GLALWEAKMKQLAERI [chain 1 A16I]: 0.00523; chain 1 GLALWEAKMKQLAERN [chain 1 A16N]: 0.00504.
Regarding chain 1 GLALWEAKMKQLAERG [chain 1 A16G], the screen value amounted to 6.5e-05.
The result for chain 1 GLALWEAKMKQLAERD [chain 1 A16D] reads 0.027; that for chain 1 GLALWEAKMKQLAERL [chain 1 A16L], 6.61e-05.
Next, chain 1 GLALWEAKMKQLAERP [chain 1 A16P]: 0.0179.
Next, chain 1 GLALWEAKMKQLAERT [chain 1 A16T]: 0.00395; chain 1 GLALWEAKMKQLAERE [chain 1 A16E]: 0.00115.
On to chain 1 GLALWEAKMKQLAERM [chain 1 A16M], for which the screen value worked out at 0.000143.
